In PMC8863895 one finds IC50 data, which are given here for five substances.

In general, IC50 refers to the concentration that gives 50% inhibition. Low values mean higher potency, high ones lower potency.

Like-named read-outs stand apart in the source and are kept apart here.

One test addresses C3b (human). The experiment in a line: ELISA; decay acceleration assay: 250 ng C3b immobilised on Maxisorp; C3bBb formed with 400 ng Factor B and 25 ng Factor D, 2 h 37 °C; increasing concentrations of regulator, 40 min 37 °C; Bb remaining bound to C3b detected with anti-factor B polyclonal antibody. Background: An ELISA detects its analyte on a solid surface through an enzyme-linked reagent.

Test [1] addresses complement C5. The test can be described thus: ELISA; 5 µg/mL C3b or C5 immobilised on Maxisorp plates at 4 °C overnight; increasing concentrations of regulator (0.195-50 nM) in sample buffer (2% BSA in TBS, 0.05% Tween-20); detected with anti-His-tag antibodies; absorbance normalised to the highest concentration; IC50 from a 4PL nonlinear regression.
Test [2] deals with complement C3b (UniProt P01024). The test is described as above.
The target in test [3] is complement C5. The description is as above. The source holds these as a separate data set.
Test [4] has as its target complement C3b (UniProt P01024). Described as above. This is another data set of the same source.

Sequence of human factor H, plasma-derived (hFH) (P08603 19-1231): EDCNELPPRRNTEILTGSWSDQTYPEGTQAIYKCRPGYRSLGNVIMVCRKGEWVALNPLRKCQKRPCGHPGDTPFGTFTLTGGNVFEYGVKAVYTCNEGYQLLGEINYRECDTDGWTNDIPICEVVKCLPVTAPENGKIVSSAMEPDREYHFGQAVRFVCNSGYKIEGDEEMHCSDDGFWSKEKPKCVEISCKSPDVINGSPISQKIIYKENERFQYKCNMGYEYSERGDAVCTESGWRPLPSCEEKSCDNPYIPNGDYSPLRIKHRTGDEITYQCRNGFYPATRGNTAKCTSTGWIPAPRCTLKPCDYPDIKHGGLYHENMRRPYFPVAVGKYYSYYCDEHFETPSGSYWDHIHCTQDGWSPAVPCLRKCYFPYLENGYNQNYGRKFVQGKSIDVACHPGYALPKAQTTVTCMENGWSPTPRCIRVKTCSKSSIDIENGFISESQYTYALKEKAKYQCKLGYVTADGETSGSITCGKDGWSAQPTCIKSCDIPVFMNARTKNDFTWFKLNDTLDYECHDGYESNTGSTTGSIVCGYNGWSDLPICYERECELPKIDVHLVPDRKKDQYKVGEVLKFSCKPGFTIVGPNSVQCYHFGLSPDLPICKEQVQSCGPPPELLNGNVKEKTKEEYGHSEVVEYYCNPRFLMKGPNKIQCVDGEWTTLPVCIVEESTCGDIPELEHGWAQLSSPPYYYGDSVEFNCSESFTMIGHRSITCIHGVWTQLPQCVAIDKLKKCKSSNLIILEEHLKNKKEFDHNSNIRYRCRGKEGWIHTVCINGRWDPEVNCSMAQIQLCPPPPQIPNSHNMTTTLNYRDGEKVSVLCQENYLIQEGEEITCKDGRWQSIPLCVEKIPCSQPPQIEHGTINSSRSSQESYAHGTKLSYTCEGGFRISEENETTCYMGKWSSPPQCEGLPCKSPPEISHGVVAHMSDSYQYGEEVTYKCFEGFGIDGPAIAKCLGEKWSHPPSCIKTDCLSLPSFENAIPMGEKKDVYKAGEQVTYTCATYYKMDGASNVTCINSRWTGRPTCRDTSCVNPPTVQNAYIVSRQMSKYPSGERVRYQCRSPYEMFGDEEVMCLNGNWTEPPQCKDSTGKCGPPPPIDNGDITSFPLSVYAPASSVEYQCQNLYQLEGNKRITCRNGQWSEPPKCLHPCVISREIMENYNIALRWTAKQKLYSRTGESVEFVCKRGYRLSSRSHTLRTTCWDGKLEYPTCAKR

Turning to “MFHR1^I62 (FHR1_(1-2):FH1-4:FH_(19-20), isoleucine at position 193 = position 62 of factor H) (from UniProt Q03591 19-143; P08603 18-264; P08603 1107-1231)”, in the test with C3b (human), the IC50 came out at 7.8 nM.

As for “MFHR1^I62 (FHR1_(1-2):FH1-4:FH_(19-20), variant with isoleucine at position 62 of factor H)”, the IC50 with complement C5 [1] came to 52.5 nM; in the test with complement C3b [2] it was 16.1 nM; in the test with complement C5 [3], 26.8 nM; with complement C3b [4] it was 4.7 nM.

As to “MFHR1^V62 (FHR1_(1-2):FH1-4:FH_(19-20)) (from UniProt Q03591 19-143; P08603 18-264; P08603 1107-1231)”, in the test with C3b (human), the concentration for half-maximal inhibition (IC50) was found to be 9.4 nM.

Take “MFHR1^V62 (FHR1_(1-2):FH1-4:FH_(19-20), valine at position 62 of factor H)”: the IC50 was 26.8 nM in the test with complement C5 [3] and 6.32 nM in the test with complement C3b [4].

In the test with C3b (human), “human factor H, plasma-derived (hFH) (from UniProt P08603 19-1231) (natural protein)” returned an IC50 of 3.8 nM.
